Reference: US20240342305A1 (published 2024)
Changes are numbered by the printed parent chain.

T1: recombinant human GPC2 (rhGPC2) (human, UniProt Q8N158 24-554, limits assumed)
T1 sequence (looked up): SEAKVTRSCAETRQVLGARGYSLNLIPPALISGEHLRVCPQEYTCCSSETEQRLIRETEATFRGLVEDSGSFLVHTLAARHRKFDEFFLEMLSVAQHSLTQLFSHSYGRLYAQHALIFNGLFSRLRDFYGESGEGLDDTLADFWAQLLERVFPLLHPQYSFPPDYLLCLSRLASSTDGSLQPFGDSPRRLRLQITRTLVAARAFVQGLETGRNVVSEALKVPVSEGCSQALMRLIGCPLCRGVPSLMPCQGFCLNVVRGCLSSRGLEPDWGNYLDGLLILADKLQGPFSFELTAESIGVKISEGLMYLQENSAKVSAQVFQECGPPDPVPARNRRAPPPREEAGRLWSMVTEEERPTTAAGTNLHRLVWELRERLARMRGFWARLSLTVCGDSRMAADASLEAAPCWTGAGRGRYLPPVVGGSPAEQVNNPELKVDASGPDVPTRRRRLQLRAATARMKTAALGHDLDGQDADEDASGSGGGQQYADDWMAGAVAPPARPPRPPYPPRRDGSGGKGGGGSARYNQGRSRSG

T2: recombinant human GPC6 (rhGPC6) (human, UniProt Q9Y625 24-529, limits assumed)
T2 sequence (looked up): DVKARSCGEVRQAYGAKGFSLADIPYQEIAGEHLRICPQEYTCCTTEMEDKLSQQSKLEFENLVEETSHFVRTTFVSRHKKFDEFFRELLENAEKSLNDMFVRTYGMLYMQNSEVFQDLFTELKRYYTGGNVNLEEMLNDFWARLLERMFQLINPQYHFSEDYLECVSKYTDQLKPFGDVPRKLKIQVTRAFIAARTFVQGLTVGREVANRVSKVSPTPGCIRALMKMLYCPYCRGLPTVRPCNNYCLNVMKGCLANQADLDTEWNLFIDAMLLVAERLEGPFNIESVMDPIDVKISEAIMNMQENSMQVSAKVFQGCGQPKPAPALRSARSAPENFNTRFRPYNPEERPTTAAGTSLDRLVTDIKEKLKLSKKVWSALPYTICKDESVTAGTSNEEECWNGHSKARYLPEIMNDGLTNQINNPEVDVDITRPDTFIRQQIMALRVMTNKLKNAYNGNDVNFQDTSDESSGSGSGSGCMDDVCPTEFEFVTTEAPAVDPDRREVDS

T3: recombinant human GPC5 (rhGPC5) (human, UniProt P78333 25-551, limits assumed)
T3 sequence (looked up): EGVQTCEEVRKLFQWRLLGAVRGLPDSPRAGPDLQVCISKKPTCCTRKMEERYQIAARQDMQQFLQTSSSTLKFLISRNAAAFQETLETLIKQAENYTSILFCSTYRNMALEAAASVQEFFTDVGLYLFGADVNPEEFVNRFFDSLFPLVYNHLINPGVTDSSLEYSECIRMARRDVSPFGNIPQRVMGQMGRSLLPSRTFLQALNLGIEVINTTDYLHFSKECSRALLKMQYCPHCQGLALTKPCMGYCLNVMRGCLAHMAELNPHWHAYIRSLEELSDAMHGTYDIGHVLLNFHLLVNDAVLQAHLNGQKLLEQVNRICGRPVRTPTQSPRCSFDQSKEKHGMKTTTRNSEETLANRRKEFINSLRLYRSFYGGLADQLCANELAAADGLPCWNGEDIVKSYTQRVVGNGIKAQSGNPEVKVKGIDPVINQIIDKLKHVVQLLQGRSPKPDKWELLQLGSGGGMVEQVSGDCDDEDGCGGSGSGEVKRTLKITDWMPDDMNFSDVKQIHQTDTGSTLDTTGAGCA

T4: recombinant human GPC1 (rhGPC1) (human, UniProt P35052 24-530, limits assumed)
T4 sequence (looked up): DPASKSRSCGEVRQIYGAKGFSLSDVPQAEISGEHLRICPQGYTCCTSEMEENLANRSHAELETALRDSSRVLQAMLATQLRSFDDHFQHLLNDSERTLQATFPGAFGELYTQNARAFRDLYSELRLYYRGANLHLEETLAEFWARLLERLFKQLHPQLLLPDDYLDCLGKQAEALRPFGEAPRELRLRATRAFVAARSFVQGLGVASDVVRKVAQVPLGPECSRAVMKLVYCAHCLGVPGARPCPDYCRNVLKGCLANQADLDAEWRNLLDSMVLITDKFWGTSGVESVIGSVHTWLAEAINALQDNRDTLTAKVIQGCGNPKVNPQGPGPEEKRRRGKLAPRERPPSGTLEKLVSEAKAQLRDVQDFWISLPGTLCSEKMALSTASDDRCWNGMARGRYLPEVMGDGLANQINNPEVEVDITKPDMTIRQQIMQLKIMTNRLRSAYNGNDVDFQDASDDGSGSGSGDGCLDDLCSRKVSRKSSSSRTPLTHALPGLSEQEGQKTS

B1: P7D4 mutant single chain antibody am4 (scFv, not shown: a dimerising Fc or GST)
scFv: QVQLQESGGGLVQPGRSLRLSCAASGFTFSTYAMTWVRQAPGKGLEWVSSISSSGESTYYADSVKGRFTISRDNSKNTLYLQMNSLRAEDTAVYYCAKDRRGSHADAFDVWGQGTLVTVSSGGGGSGGGGSGGGGSQSALTQPPSASGSPGQSVTISCTGTSSDVGGYNYVSWYQQYPGKAPKLLIYGNSNRPSGVPDRFSGSKSGTSASLAITGLQAEDGADYYCQSYDSSLRVVFGGGTKVTVLG
B2: P7D4 mutant single chain antibody am20 (scFv, not shown: a dimerising Fc or GST)
scFv: B1 scFv with T35N, S50A, S53M
B3: P7D4 mutant single chain antibody am42 (scFv, not shown: a dimerising Fc or GST)
scFv: QVQLQESGGGLVQPGRSLRLSCAASGFTFSSYAMHWVRQAPGKGLEWVSAISSSGGSTYYADSVKGRFTISRDNSKNTLYLQMNSLRAEDTAVYYCAKDRRGSHADAFDVWGQGTLVTVSSGGGGSGGGGSGGGGSQSALTQPPSASGSPGQSVTISCTGTSSDVGLMHNVSWYQQYPGKAPKLLIYKSSSRPSGVPDRFSGSKSGTSASLAITGLQAEDGADYYCQSYDSSLRVVFGGGTKVTVLG
B4: P7D4 mutant single chain antibody am35 (scFv, not shown: a dimerising Fc or GST)
scFv: B3 scFv with L167H, M168K, H169F, N170P, S189N, S190L, S191L
B5: P7D4 mutant single chain antibody T2-23 (scFv, not shown: a dimerising Fc or GST)
scFv: B1 scFv with T31S, T35H, S50A, E56R, K65E, F108L, D109N
B6: P7D4 mutant single chain antibody am14 (scFv, not shown: a dimerising Fc or GST)
scFv: B1 scFv with T35A, S50E, E56S, S57R

Target: T1, recombinant human GPC2 (rhGPC2)
Experiment: ELISA, antigen coated 100 ng/well, HRP anti-human Fc detection
Description: (§1) In order to analyze the binding specificity of P7D4 series antibody to GPC3 protein, binding activity of P7D4 series single chain antibody to human GPC family members, including recombinant human GPC1 (rhGPC1), GPC2 (rhGPC2), GPC3 (rhGPC3), GPC5 (rhGPC5) and GPC6 (rhGPC6) (purchased from Andy Biosciences (Shanghai) Co., Ltd.) was detected by ELISA, respectively.
(§2) For this purpose, the above 5 antigens were diluted with 0.1 M NaHCO₃ (pH 9.6) coating solution and each well was coated with 100 ng at 50 μl/well overnight at 4° C. and blocked with 2% (w/v) BSA in PBST for 2 hours at room temperature. The plate was then rinsed for three times with PBST and PBST was removed. Subsequently, 100 ng of each antibody protein in PBST was added to each well plate, and the assay for each sample was performed in duplecate wells. After incubated for 2 hours at 37° C., the plates were rinsed for three times with PBST followed by addition of 100 μl/well HRP-labeled rabbit anti-human Fc antibody (purchased from Shanghai Rui Jin Biotechnology Co., Ltd.) diluted at 1:20000 and incubated at 37° C. for 1 hour. For detection, wells were rinsed for three times with PBST followed by three times with PBS and finally with TMB for development for 10 min. The chromogenic reaction was stopped with 50 μl of 2 M H₂SO₄ per well, and extinction value was measured at 450 nm with enzyme-linked immunodetector (Bio-Rad).

Row | Binder | binding result
1 | B1 | no binding (tested: 100 ng of each antibody protein per well)
2 | B2 | no binding (tested: 100 ng of each antibody protein per well)
3 | B3 | no binding (tested: 100 ng of each antibody protein per well)
4 | B4 | no binding (tested: 100 ng of each antibody protein per well)
5 | B5 | no binding (tested: 100 ng of each antibody protein per well)
6 | B6 | no binding (tested: 100 ng of each antibody protein per well)

Target: T2, recombinant human GPC6 (rhGPC6)
Experiment: as above
Description: as §1, §2

Row | Binder | binding result
7 | B1 | no binding (tested: 100 ng of each antibody protein per well)
8 | B2 | no binding (tested: 100 ng of each antibody protein per well)
9 | B3 | no binding (tested: 100 ng of each antibody protein per well)
10 | B4 | no binding (tested: 100 ng of each antibody protein per well)
11 | B5 | no binding (tested: 100 ng of each antibody protein per well)
12 | B6 | no binding (tested: 100 ng of each antibody protein per well)

Target: T3, recombinant human GPC5 (rhGPC5)
Experiment: as above
Description: as §1, §2

Row | Binder | binding result
13 | B1 | no binding (tested: 100 ng of each antibody protein per well)
14 | B2 | no binding (tested: 100 ng of each antibody protein per well)
15 | B3 | no binding (tested: 100 ng of each antibody protein per well)
16 | B4 | no binding (tested: 100 ng of each antibody protein per well)
17 | B5 | no binding (tested: 100 ng of each antibody protein per well)
18 | B6 | no binding (tested: 100 ng of each antibody protein per well)

Target: T4, recombinant human GPC1 (rhGPC1)
Experiment: as above
Description: as §1, §2

Row | Binder | binding result
19 | B1 | no binding (tested: 100 ng of each antibody protein per well)
20 | B2 | no binding (tested: 100 ng of each antibody protein per well)
21 | B3 | no binding (tested: 100 ng of each antibody protein per well)
22 | B4 | no binding (tested: 100 ng of each antibody protein per well)
23 | B5 | no binding (tested: 100 ng of each antibody protein per well)
24 | B6 | no binding (tested: 100 ng of each antibody protein per well)

Target: T5, human GPC3 recombinant protein (purchased from Shanghai Rui Jin Biotechnology Co., Ltd.) (human, UniProt P51654 25-559, limits assumed)
T5 construct: Bought recombinant protein; also called huGPC3; antigen GPC3
Experiment: SPR Biacore T200, antibody captured by anti-human IgG (Fc), GPC3 as analyte, single-cycle kinetics, 25 °C
Description: To quantitatively analyze the binding of P7D4 series antibodies to GPC3, the affinity and kinetic parameters of P7D4 series single-chain antibodies were measured by capture method using Biacore T200 system (from GE). An anti-human IgG (Fc) antibody (purchased from GE) was coupled to carboxymethyl dextran surface of sensor chip CM5 through primary amino with NHS/EDC coupling according to the manufacturer's instructions. Measurements were performed in 1×HBS-EP+working buffer at 25° C., 30 μl/min, and regeneration condition was 3 M MgCl₂, 10 μl/min for 30 seconds. In each round of the testing cycle, the antibody to be tested is firstly captured onto the chip. GPC3 of a certain concentration flowed over the chip surface. The interaction between human GPC3 and the captured antibody caused the change of the molecular concentration on the surface of the sensor chip which was measured according to changes in SPR Signal and expressed in resonance units (RU). Time vs resonance unit (RU) was plotted. The resulting sensorgram documents the entire reaction including the binding and dissociation processes (FIG. 4). In all single-cycle kinetics, GPC3 concentrations were 5 nM, 10 nM, 20 nM, 40 nM and 80 nM, respectively. The resulting curves were evaluated using Biacore T200 evaluation software and the affinity KD values were calculated.

Row | Binder | Kd [nM] | koff [s⁻¹] | kon [M⁻¹ s⁻¹]
25 | B1 | 0.0756 | 4.08e-05 | 539000
26 | B2 | 0.306 | 6.47e-05 | 212000
27 | B3 | 0.0821 | 6.7e-05 | 816000
28 | B4 | 0.0714 | 5.2e-05 | 738000
29 | B6 | 0.0646 | 4.43e-05 | 673000
